We go through 3 molecules from paper PMC4714889, “Dissecting the Molecular Mechanism of Nucleotide-Dependent Activation of the KtrAB K^+ Transporter” (PLoS Biology, 2016).

First the molecules themselves.
B1: KtrA (wild type), cytosolic RCK ring protein of the KtrAB K+ transporter from Bacillus subtilis (natural protein, UniProt O32080 1-222, looked up)
chain: MGRIKNKQFAVIGLGRFGGSICKELHRMGHEVLAVDINEEKVNAYASYATHAVIANATEENELLSLGIRNFEYVIVAIGANIQASTLTTLLLKELDIPNIWVKAQNYYHHKVLEKIGADRIIHPEKDMGVKIAQSLSDENVLNYIDLSDEYSIVELLATRKLDSKSIIDLNVRAKYGCTILAIKHHGDICLSPAPEDIIREQDCLVIMGHKKDIKRFENEGM
notes: KtrA, RCK domain protein of the KtrAB K+ transporter, Bacillus subtilis, GenBank KIX81590.1; eluted and kept with ADP or ATP; also called full-length KtrA; wild type KtrA; source: E. coli BL21(DE3), purified (anion exchange, ADP-agarose, Superdex-S200)
B2: KtrB (wild type), membrane protein of the KtrAB K+ transporter from Bacillus subtilis (natural protein)
chain: MTLQKDKVIKWVRFTPPQVLAIGFFLTIIIGAVLLMLPISTTKPLSWIDALFTAASATTVTGLAVVDTGTQFTVFGQTVIMGLIQIGGLGFMTFAVLIVMILGKKIGLKERMLVQEALNQPTIGGVIGLVKVLFLFSISIELIAALILSIRLVPQYGWSSGLFASLFHAISAFNNAGFSLWPDNLMSYVGDPTVNLVITFLFITGGIGFTVLFDVMKNRRFKTFSLHTKLMLTGTLMLNAIAMLTVFILEYSNPGTLGHLHIVDKLWASYFQAVTPRTAGFNSLDFGSMREGTIVFTLLLMFIGAGSASTASGIKLTTFIVILTSVIAYLRGKKETVIFRRSIKYPIIIKALAVSVTSLFIVFLGIFALTITEQAPFLQIVFETFSAFGTVGLTMGLTPELTTAGKCIIIVIMFIGRIGPLTFVFSFAKTEQSNIRYPDGEVFTG
notes: KtrB, membrane protein of the KtrAB K+ transporter, Bacillus subtilis, GenBank KIX81591.1; In detergent (DDM or cymal-6), or reconstituted in E. coli polar lipid liposomes for the float-up; also called KtrB wt; wild-type KtrB; source: E. coli BL21(DE3), purified (DDM extraction, Talon resin, thrombin, Superdex-200); not shown: His tag, N-terminal, cleaved
B3: KtrAΔC, C-terminal domain truncated KtrA (tandem of two N-terminal KtrA domains) (domain or fragment, Bacillus subtilis)
chain: MGRIKNKQFAVIGLGRFGGSICKELHRMGHEVLAVDINEEKVNAYASYATHAVIANATEENELLSLGIRNFEYVIVAIGANIQASTLTTLLLKELDIPNIWVKAQNYYHHKVLEKIGADRIIHPEKDMGVKIAQSLSDENVLNYLEGSKQFAVIGLGRFGGSICKELHRMGHEVLAVDINEEKVNAYASYATHAVIANATEENELLSLGIRNFEYVIVAIGANIQASTLTTLLLKELDIPNIWVKAQNYYHHKVLEKIGADRIIHPEKDMGVKIAQSLSDENVLNY
notes: KtrA N-terminal domain, Bacillus subtilis, GenBank KIX81590.1, residues 1-144 (first copy of the tandem); linker between the two N-terminal domains; KtrA N-terminal domain, Bacillus subtilis, GenBank KIX81590.1, residues 7-144 (second copy of the tandem); Lacks KtrA residues 145-222 (the whole C-terminal domain); Forms an octameric ring counted in N-terminal domains; each chain carries two of …

Series [1] concerns the molecule itself. The experiment in a line: crystal structure; wild-type KtrAB with ADP, 8 Å diffraction dataset; molecular replacement searches and an averaged map only (low resolution model); crystals from 100 mM Hepes pH 7.5, 1 M NaCl, 10% PEG4000, 20°C.
Series [2] deals with B2. The series can be described thus: SEC; size-exclusion purified KtrB (wild type or mutant) mixed with an excess of KtrA (wild type, KtrAC0 or KtrAΔC), run in the presence of ATP or ADP, in detergent; SDS-PAGE of the fractions. The following applies: both partners purified. (In general: Size exclusion chromatography separates by hydrodynamic size, large species first.)
Series [3] deals with the molecule itself. The experiment in a line: crystal structure; KtrAΔCB with bound ADP, data to 6 Å, molecular replacement, 4-fold and 8-fold averaging, DEN refinement; crystals from 100 mM Tris-HCl pH 8.5, 18%–22% PEG400, 100–200 mM CaCl2, 20°C.

In the case of B1, the binding result in series [1] and in series [2] was “binds” each time.
As usually defined, the stoichiometry N is the number of molecules, sites or subunits per partner or assembly. As to B2, in series [3], the “stoichiometry N” value was found to be 2.
On to B3, for which the binding result in series [3] and in series [2] was “binds” each time.
